One protein from publication PMC3606566, “Structure of Pseudomonas aeruginosa inosine 5′-monophosphate dehydrogenase” (Acta Crystallographica Section F: Structural Biology and …, 2013) can be followed below.

This data set deals with the molecule itself. Briefly: crystal structure; apo PaIMPDH, sitting-drop vapour diffusion, 0.2 M sodium acetate pH 4.5, 40% MPD, room temperature; space group I4, one subunit in the asymmetric unit, tetramer by the crystallographic fourfold axis; 2.25 Å.

B1: Pseudomonas aeruginosa inosine 5′-monophosphate dehydrogenase (enzyme, UniProt Q9HXM5 1-489, looked up)
chain: MLRISQEALTFDDVLLIPGYSEVLPKDVSLKTRLTRGIELNIPLVSAAMDTVTEARLAIAMAQEGGIGIIHKNMGIEQQAAEVRKVKKHETAIVRDPVTVTPSTKIIELLQMAREYGFSGFPVVEQGELVGIVTGRDLRVKPNAGDTVAAIMTPKDKLVTAREGTPLEEMKAKLYENRIEKMLVVDENFYLRGLVTFRDIEKAKTYPLASKDEQGRLRVGAAVGTGADTGERVAALVAAGVDVVVVDTAHGHSKGVIERVRWVKQTFPDVQVIGGNIATAEAAKALAEAGADAVKVGIGPGSICTTRIVAGVGVPQISAIANVAAALEGTGVPLIADGGIRFSGDLAKAMVAGAYCVMMGSMFAGTEEAPGEIELFQGRSYKSYRGMGSLGAMSGSQGSSDRYFQDASAGAEKLVPEGIEGRVPYKGALSAIVHQLMGGLRAAMGYTGSADIQQMRTQPQFVRITGAGMAESHVHDVQITKEAPNYRVG
notes: Inosine 5′-monophosphate dehydrogenase of Pseudomonas aeruginosa, full-length gene PA3770, amino acids 1-489, synthesised and codon-optimised for E. coli; Modified pET15b: N-terminal His tag followed by a TEV protease cleavage site; The His tag was still present at size-exclusion chromatography; The model holds only residues 1-91, 205-370 and 426-467; also called PaIMPDH; IMPDH; not shown: His …
For B1, the “stoichiometry N” value came out at 4.

By stoichiometry N is commonly meant a count of units in the complex or per binding partner.
